# Test results taken from IntAct's records for PubMed 29892012.
# B1: Keratin, type I cuticular Ha8 (Homo sapiens), O76015 (parent)
# chain: MTSSYSSSSCPLGCTMAPGARNVSVSPIDIGCQPGAEANIAPMCLLANVAHANRVRVGSTPLGRPSLCLPPTCHTACPLPGTCHIPGNIGICGAYGENTLNGHEKETMQFLNDRLANYLEKVRQLEQENAELEATLLERSKCHESTVCPDYQSYFHTIEELQQKILCSKAENARLIVQIDNAKLAADDFRIKLESERSLRQLVEADKCGTQKLLDDATLAKADLEAQQESLKEEQLSLKSNHEQEVKILRSQLGEKLRIELDIEPTIDLNRVLGEMRAQYEAMLETNRQDVEQWFQAQSEGISLQDMSCSEELQCCQSEILELRCTVNALEVERQAQHTLKDCLQNSLCEAEDRFGTELAQMQSLISNVEEQLSEIRADLERQNQEYQVLLDVKTRLENEIATYRNLLESEDCKLPCNPCSTSPSCVTAPCAPRPSCGPCTTCGPTCGASTTGSRF
# partner: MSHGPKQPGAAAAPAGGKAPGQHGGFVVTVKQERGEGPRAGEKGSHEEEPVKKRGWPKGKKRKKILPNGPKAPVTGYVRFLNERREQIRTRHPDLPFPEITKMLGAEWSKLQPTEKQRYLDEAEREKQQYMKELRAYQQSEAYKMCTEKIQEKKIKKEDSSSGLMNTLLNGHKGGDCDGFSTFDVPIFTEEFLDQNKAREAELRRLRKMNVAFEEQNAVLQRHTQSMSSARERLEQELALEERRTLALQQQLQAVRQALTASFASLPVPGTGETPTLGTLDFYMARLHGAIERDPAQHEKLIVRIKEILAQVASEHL
# B2: UBX domain-containing protein 6 (Homo sapiens), Q9BZV1 (parent)
# chain: MKKFFQEFKADIKFKSAGPGQKLKESVGEKAHKEKPNQPAPRPPRQGPTNEAQMAAAAALARLEQKQSRAWGPTSQDTIRNQVRKELQAEATVSGSPEAPGTNVVSEPREEGSAHLAVPGVYFTCPLTGATLRKDQRDACIKEAILLHFSTDPVAASIMKIYTFNKDQDRVKLGVDTIAKYLDNIHLHPEEEKYRKIKLQNKVFQERINCLEGTHEFFEAIGFQKVLLPAQDQEDPEEFYVLSETTLAQPQSLERHKEQLLAAEPVRAKLDRQRRVFQPSPLASQFELPGDFFNLTAEEIKREQRLRSEAVERLSVLRTKAMREKEEQRGLRKYNYTLLRVRLPDGCLLQGTFYARERLGAVYGFVREALQSDWLPFELLASGGQKLSEDENLALNECGLVPSALLTFSWDMAVLEDIKAAGAEPDSILKPELLSAIEKLL
# partner: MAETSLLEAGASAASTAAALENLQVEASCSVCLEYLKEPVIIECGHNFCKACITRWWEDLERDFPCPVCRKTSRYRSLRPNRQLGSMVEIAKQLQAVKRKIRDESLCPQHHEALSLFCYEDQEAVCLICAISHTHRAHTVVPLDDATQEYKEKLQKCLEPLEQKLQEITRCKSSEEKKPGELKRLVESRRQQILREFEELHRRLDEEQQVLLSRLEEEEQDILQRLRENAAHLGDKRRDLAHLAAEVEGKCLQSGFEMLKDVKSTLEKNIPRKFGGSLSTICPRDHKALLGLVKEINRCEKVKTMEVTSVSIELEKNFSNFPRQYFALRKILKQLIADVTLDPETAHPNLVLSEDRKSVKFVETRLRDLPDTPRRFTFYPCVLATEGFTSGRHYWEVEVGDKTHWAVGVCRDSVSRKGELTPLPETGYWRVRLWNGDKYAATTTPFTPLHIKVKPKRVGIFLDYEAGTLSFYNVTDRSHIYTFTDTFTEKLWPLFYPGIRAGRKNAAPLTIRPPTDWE
# B3: Protein VAC14 homolog (Homo sapiens), Q08AM6 (parent)
# chain: MNPEKDFAPLTPNIVRALNDKLYEKRKVAALEIEKLVREFVAQNNTVQIKHVIQTLSQEFALSQHPHSRKGGLIGLAACSIALGKDSGLYLKELIEPVLTCFNDADSRLRYYACEALYNIVKVARGAVLPHFNVLFDGLSKLAADPDPNVKSGSELLDRLLKDIVTESNKFDLVSFIPLLRERIYSNNQYARQFIISWILVLESVPDINLLDYLPEILDGLFQILGDNGKEIRKMCEVVLGEFLKEIKKNPSSVKFAEMANILVIHCQTTDDLIQLTAMCWMREFIQLAGRVMLPYSSGILTAVLPCLAYDDRKKSIKEVANVCNQSLMKLVTPEDDELDELRPGQRQAEPTPDDALPKQEGTASGGPDGSCDSSFSSGISVFTAASTERAPVTLHLDGIVQVLNCHLSDTAIGMMTRIAVLKWLYHLYIKTPRKMFRHTDSLFPILLQTLSDESDEVILKDLEVLAEIASSPAGQTDDPGPLDGPDLQASHSELQVPTPGRAGLLNTSGTKGLECSPSTPTMNSYFYKFMINLLKRFSSERKLLEVRGPFIIRQLCLLLNAENIFHSMADILLREEDLKFASTMVHALNTILLTSTELFQLRNQLKDLKTLESQNLFCCLYRSWCHNPVTTVSLCFLTQNYRHAYDLIQKFGDLEVTVDFLAEVDKLVQLIECPIFTYLRLQLLDVKNNPYLIKALYGLLMLLPQSSAFQLLSHRLQCVPNPELLQTEDSLKAAPKSQKADSPSIDYAELLQHFEKVQNKHLEVRHQRSGRGDHLDRRVVL
# partner: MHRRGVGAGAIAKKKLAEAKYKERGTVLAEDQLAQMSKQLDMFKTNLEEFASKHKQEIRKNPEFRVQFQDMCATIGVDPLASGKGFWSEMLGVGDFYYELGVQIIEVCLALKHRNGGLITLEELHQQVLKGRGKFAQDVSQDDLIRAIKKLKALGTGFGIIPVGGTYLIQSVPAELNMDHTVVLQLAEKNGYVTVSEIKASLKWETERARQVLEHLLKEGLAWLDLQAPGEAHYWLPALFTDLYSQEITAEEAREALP
# B4: Genetic suppressor element 1 (Homo sapiens), Q14687 (parent)
# chain: MKGMSHEPKSPSLGMLSTATRTTATVNPLTPSPLNGALVPSGSPATSSALSAQAAPSSSFAAALRKLAKQAEEPRGSSLSSESSPVSSPATNHSSPASTPKRVPMGPIIVPPGGHSVPSTPPVVTIAPTKTVNGVWRSESRQDAGSRSSSGGRERLIVEPPLPQEKAGGPAIPSHLLSTPYPFGLSPSSVVQDSRFPPLNLQRPVHHVVPPSTVTEDYLRSFRPYHTTDDLRMSSLPPLGLDPATAAAYYHPSYLAPHPFPHPAFRMDDSYCLSALRSPFYPIPTPGSLPPLHPSAMHLHLSGVRYPPELSHSSLAALHSERMSGLSAERLQMDEELRREREREREREREREADREREKEREREREKEREQEKEREREKERERELERQREQRAREKELLAAKALEPSFLPVAELHGLRGHATEERGKPSEQLTPTRAEKLKDAGLQAPKPVQHPLHPVPTPHHTVPSLISNHGIFSLPSSSAATALLIQRTNEEEKWLARQRRLRQEKEDRQSQVSEFRQQVLEQHLDMGRPPVPAEAEHRPESTTRPGPNRHEPGGRDPPQHFGGPPPLISPKPQLHAAPTALWNPVSLMDNTLETRRAESHSLHSHPAAFEPSRQAAVPLVKVERVFCPEKAEEGPRKREPAPLDKYQPPPPPPREGGSLEHQPFLPGPGPFLAELEKSTQTILGQQRASLPQAATFGELSGPLKPGSPYRPPVPRAPDPAYIYDEFLQQRRRLVSKLDLEERRRREAQEKGYYYDLDDSYDESDEEEVRAHLRCVAEQPPLKLDTSSEKLEFLQLFGLTTQQQKEELVAQKRRKRRRMLRERSPSPPTIQSKRQTPSPRLALSTRYSPDEMNNSPNFEEKKKFLTIFNLTHISAEKRKDKERLVEMLRAMKQKALSAAVADSLTNSPRDSPAVSLSEPATQQASLDVEKPVGVAASLSDIPKAAEPGKLEQVRPQELSRVQELAPASGEKARLSEAPGGKKSLSMLHYIRGAAPKDIPVPLSHSTNGKSKPWEPFVAEEFAHQFHESVLQSTQKALQKHKGSVAVLSAEQNHKVDTSVHYNIPELQSSSRAPPPQHNGQQEPPTARKGPPTQELDRDSEEEEEEDDEDGEDEEEVPKRKWQGIEAVFEAYQEHIEEQNLERQVLQTQCRRLEARHYSLSLTAEQLSHSVAELRSQKQKMVSERERLQAELDHLRKCLALPAMHWPRGYLKGYPR
# partner: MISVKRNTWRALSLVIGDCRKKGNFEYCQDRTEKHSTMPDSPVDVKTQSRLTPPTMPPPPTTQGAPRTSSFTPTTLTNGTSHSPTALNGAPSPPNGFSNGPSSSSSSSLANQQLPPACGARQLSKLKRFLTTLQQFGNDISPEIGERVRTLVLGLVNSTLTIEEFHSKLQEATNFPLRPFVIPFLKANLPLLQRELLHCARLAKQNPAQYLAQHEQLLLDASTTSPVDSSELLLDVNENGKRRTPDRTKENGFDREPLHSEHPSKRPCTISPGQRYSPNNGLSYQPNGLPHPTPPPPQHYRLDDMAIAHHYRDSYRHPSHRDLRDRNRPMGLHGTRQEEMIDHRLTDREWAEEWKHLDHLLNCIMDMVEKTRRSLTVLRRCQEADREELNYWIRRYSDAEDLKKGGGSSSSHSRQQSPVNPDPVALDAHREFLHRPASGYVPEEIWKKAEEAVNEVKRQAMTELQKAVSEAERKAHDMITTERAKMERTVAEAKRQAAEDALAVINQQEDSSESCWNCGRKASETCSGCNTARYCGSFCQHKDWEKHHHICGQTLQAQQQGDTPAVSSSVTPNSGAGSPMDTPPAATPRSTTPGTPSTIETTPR
# Variants of: B1
# Settings: with hm20b_human HMG20B
row,effect of a mutation on the interaction,Variant
1,with no effect,D306A

# Variants of: B2
# Settings: with tri39_human TRIM39, Q9HCM9
row,effect of a mutation on the interaction,Variant
1,disrupting interaction strength,E391K

# Variants of: B3
# Settings: with snf8_human SNF8, Q96H20
row,effect of a mutation on the interaction,Variant
1,with no effect,A127S

# Variants of: B4
# Settings: with mtg8_human RUNX1T1, Q06455
row,effect of a mutation on the interaction,Variant
1,with no effect,R503Q

# Variants of: B4
# Settings: with mtg8_human RUNX1T1, Q06455
# Remark: another data set of the same source
row,effect of a mutation on the interaction,Variant
1,with no effect,E368K
